T1: ADAMTS5 (human, UniProt Q9UNA0 262-622, limits assumed)
T1 sequence (looked up): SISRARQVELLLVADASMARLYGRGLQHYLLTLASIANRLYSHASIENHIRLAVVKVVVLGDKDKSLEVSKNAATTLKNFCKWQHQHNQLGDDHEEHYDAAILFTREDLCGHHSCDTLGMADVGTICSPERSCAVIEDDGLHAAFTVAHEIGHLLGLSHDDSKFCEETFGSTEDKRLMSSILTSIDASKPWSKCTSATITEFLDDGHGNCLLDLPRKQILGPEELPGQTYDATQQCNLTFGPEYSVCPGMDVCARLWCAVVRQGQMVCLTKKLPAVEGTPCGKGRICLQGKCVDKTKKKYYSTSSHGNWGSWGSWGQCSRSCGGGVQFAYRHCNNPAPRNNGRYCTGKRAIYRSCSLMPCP

T2: ADAMTS4 (human, UniProt O75173 213-685, limits assumed)
T2 sequence (looked up): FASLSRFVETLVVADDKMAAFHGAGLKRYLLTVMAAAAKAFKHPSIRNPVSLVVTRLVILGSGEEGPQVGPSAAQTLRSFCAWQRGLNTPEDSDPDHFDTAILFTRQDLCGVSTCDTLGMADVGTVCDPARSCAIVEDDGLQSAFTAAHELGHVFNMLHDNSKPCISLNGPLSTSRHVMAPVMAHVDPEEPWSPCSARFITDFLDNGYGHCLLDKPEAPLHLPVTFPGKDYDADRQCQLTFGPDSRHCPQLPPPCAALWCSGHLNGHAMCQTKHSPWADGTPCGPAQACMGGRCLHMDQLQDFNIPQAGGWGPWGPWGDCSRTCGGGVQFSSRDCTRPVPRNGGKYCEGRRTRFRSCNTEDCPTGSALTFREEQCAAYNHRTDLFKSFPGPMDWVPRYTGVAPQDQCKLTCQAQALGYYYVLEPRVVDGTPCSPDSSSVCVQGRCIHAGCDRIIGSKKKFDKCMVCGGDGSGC


Legend:
Experiment in all cases: cell-based or functional assay
MMP13 = MMP13 (human, UniProt P45452 104-471, limits assumed)
ADAMTS5 = target: T1, ADAMTS5
ADAMTS4 = target: T2, ADAMTS4

Protease Inhibition (% of WT) (MMP13)	Protease Inhibition (% of WT) (ADAMTS5)	Protease Inhibition (% of WT) (ADAMTS4)	Binder
120 % of WT	74 % of WT	91 % of WT	Variant A2M, bait region SEQ ID NO 86 (other) SVSGKPQYMVLVPSLLHTETTEKGCVLLSYLNETVTVSASLESVRGNRSLFTDLEAENDVLHCVAFAVPKSSSNEEVMFLTVQVKGPTQEFKKRTTVMVKNEDSLVFVQTDKSIYKPGQTVKFRVVSMDENFHPLNELIPLVYIQDPKGNRIAQWQSFQLEGGLKQFSFPLSSEPFQGSYKVVVQKKSGGRTEHPFTVEEFVLPKFEVQVTVPKIITILEEEMNVSVCGLYTYGKPVPGHVTVSICRKYSDASDCHGEDSQAFCEKFSGQLNSHGCFYQQVKTKVFQLKRKEYEMKLHTEAQIQEEGTVVELTGRQSSEITRTITKLSFVKVDSHFRQGIPFFGQVRLVDGKGVPIPNKVIFIRGNEANYYSNATTDEHGLVQFSINTTNVMGTSLTVRVNYKDRSPCYGYQWVSEEHEEAHHTAYLVFSPSKSFVHLEPMSHELPCGHTQTVQAHYILNGGTLLGLKKLSFYYLIMAKGGIVRTGTHGLLVKQEDMKGHFSISIPVKSDIAPVARLLIYAVLPTGDVIGDSAKYDVENCLANKVDLSFSPSQSLPASHAHLRVTAAPQSVCALRAVDQSVLLMKPDAELSASSVYNLLPEKDLTGFPGPLNDQDDEDCINRHNVYINGITYTPVSSTNEKDMYSFLEDMGLKAFTNSKIRKPKMCPQLEQYEMHGPEGLRVGSELEGRGSKEEEGLGSIPENFFGVKLRKYFPETWIWDLVVVNSAGVAEVGVTVPDTITEWKAGAFCLSEDAGLGISSTASLRAFQPFFVELTMPYSVIRGEAFTLKATVLNYLPKCIRVSVQLEASPAFLAVPVEKEQAPHCICANGRQTVSWAVTPKSLGNVNFTVSAEALESQELCGTEVPSVPEHGRKDTVIKPLLVEPEGLEKETTFNSLLCPSGGEVSEELSLKLPPNVVEESARASVSVLGDILGSAMQNTQNLLQMPYGCGEQNMVLFAPNIYVLDYLNETQQLTPEIKSKAIGYLNTGYQRQLNYKHYDGSYSTFGERYGRNQGNTWLTAFVLKTFAQARAYIFIDEAHITQALIWLSQRQKDNGCFRSSGSLLNNAIKGGVEDEVTLSAYITIALLEIPLTVTHPVVRNALFCLESAWKTAQEGDHGSHVYTKALLAYAFALAGNQDKRKEVLKSLNEEAVKKDNSVHWERPQKPKAPVGHFYEPQAPSAEVEMTSYVLLAYLTAQPAPTSEDLTSATNIVKWITKQQNAQGGFSSTQDTVVALHALSKYGAATFTRTGKAAQVTIQSSGTFSSKFQVDNNNRLLLQQVSLPELPGEYSMKVTGEGCVYLQTSLKYNILPEKEEFPFALGVQTLPQTCDEPKAHTSFQISLSVSYTGSRSASNMAIVDVKMVSGFIPLKPTVKMLERSNHVSRTEVSSNHVLIYLDKVSNQTLSLFFTVLQDVPVRDLKPAIVKVYDYYETDEFAIAEYNAPCSKDLGNADYKDDDDKGASHHHHHH
170 % of WT	174 % of WT	78 % of WT	Variant A2M, bait region SEQ ID NO 85 (other) SVSGKPQYMVLVPSLLHTETTEKGCVLLSYLNETVTVSASLESVRGNRSLFTDLEAENDVLHCVAFAVPKSSSNEEVMFLTVQVKGPTQEFKKRTTVMVKNEDSLVFVQTDKSIYKPGQTVKFRVVSMDENFHPLNELIPLVYIQDPKGNRIAQWQSFQLEGGLKQFSFPLSSEPFQGSYKVVVQKKSGGRTEHPFTVEEFVLPKFEVQVTVPKIITILEEEMNVSVCGLYTYGKPVPGHVTVSICRKYSDASDCHGEDSQAFCEKFSGQLNSHGCFYQQVKTKVFQLKRKEYEMKLHTEAQIQEEGTVVELTGRQSSEITRTITKLSFVKVDSHFRQGIPFFGQVRLVDGKGVPIPNKVIFIRGNEANYYSNATTDEHGLVQFSINTTNVMGTSLTVRVNYKDRSPCYGYQWVSEEHEEAHHTAYLVFSPSKSFVHLEPMSHELPCGHTQTVQAHYILNGGTLLGLKKLSFYYLIMAKGGIVRTGTHGLLVKQEDMKGHFSISIPVKSDIAPVARLLIYAVLPTGDVIGDSAKYDVENCLANKVDLSFSPSQSLPASHAHLRVTAAPQSVCALRAVDQSVLLMKPDAELSASSVYNLLPEKDLTGFPGPLNDQDDEDCINRHNVYINGITYTPVSSTNEKDMYSFLEDMGLKAFTNSKIRKPKMCPQLEQYEMHGPEGLRVGIPENFFGVSELEGRGSKEEEGLGSKLRKYFPETWIWDLVVVNSAGVAEVGVTVPDTITEWKAGAFCLSEDAGLGISSTASLRAFQPFFVELTMPYSVIRGEAFTLKATVLNYLPKCIRVSVQLEASPAFLAVPVEKEQAPHCICANGRQTVSWAVTPKSLGNVNFTVSAEALESQELCGTEVPSVPEHGRKDTVIKPLLVEPEGLEKETTFNSLLCPSGGEVSEELSLKLPPNVVEESARASVSVLGDILGSAMQNTQNLLQMPYGCGEQNMVLFAPNIYVLDYLNETQQLTPEIKSKAIGYLNTGYQRQLNYKHYDGSYSTFGERYGRNQGNTWLTAFVLKTFAQARAYIFIDEAHITQALIWLSQRQKDNGCFRSSGSLLNNAIKGGVEDEVTLSAYITIALLEIPLTVTHPVVRNALFCLESAWKTAQEGDHGSHVYTKALLAYAFALAGNQDKRKEVLKSLNEEAVKKDNSVHWERPQKPKAPVGHFYEPQAPSAEVEMTSYVLLAYLTAQPAPTSEDLTSATNIVKWITKQQNAQGGFSSTQDTVVALHALSKYGAATFTRTGKAAQVTIQSSGTFSSKFQVDNNNRLLLQQVSLPELPGEYSMKVTGEGCVYLQTSLKYNILPEKEEFPFALGVQTLPQTCDEPKAHTSFQISLSVSYTGSRSASNMAIVDVKMVSGFIPLKPTVKMLERSNHVSRTEVSSNHVLIYLDKVSNQTLSLFFTVLQDVPVRDLKPAIVKVYDYYETDEFAIAEYNAPCSKDLGNADYKDDDDKGASHHHHHH
156 % of WT	108 % of WT	68 % of WT	Variant A2M, bait region SEQ ID NO 88 (other) SVSGKPQYMVLVPSLLHTETTEKGCVLLSYLNETVTVSASLESVRGNRSLFTDLEAENDVLHCVAFAVPKSSSNEEVMFLTVQVKGPTQEFKKRTTVMVKNEDSLVFVQTDKSIYKPGQTVKFRVVSMDENFHPLNELIPLVYIQDPKGNRIAQWQSFQLEGGLKQFSFPLSSEPFQGSYKVVVQKKSGGRTEHPFTVEEFVLPKFEVQVTVPKIITILEEEMNVSVCGLYTYGKPVPGHVTVSICRKYSDASDCHGEDSQAFCEKFSGQLNSHGCFYQQVKTKVFQLKRKEYEMKLHTEAQIQEEGTVVELTGRQSSEITRTITKLSFVKVDSHFRQGIPFFGQVRLVDGKGVPIPNKVIFIRGNEANYYSNATTDEHGLVQFSINTTNVMGTSLTVRVNYKDRSPCYGYQWVSEEHEEAHHTAYLVFSPSKSFVHLEPMSHELPCGHTQTVQAHYILNGGTLLGLKKLSFYYLIMAKGGIVRTGTHGLLVKQEDMKGHFSISIPVKSDIAPVARLLIYAVLPTGDVIGDSAKYDVENCLANKVDLSFSPSQSLPASHAHLRVTAAPQSVCALRAVDQSVLLMKPDAELSASSVYNLLPEKDLTGFPGPLNDQDDEDCINRHNVYINGITYTPVSSTNEKDMYSFLEDMGLKAFTNSKIRKPKMCPQLEQYEMHGPEGLRVGIPENFFGVFYESDVMGRGHARLVHVEEPHTKLLRKYFPETWIWDLVVVNSAGVAEVGVTVPDTITEWKAGAFCLSEDAGLGISSTASLRAFQPFFVELTMPYSVIRGEAFTLKATVLNYLPKCIRVSVQLEASPAFLAVPVEKEQAPHCICANGRQTVSWAVTPKSLGNVNFTVSAEALESQELCGTEVPSVPEHGRKDTVIKPLLVEPEGLEKETTFNSLLCPSGGEVSEELSLKLPPNVVEESARASVSVLGDILGSAMQNTQNLLQMPYGCGEQNMVLFAPNIYVLDYLNETQQLTPEIKSKAIGYLNTGYQRQLNYKHYDGSYSTFGERYGRNQGNTWLTAFVLKTFAQARAYIFIDEAHITQALIWLSQRQKDNGCFRSSGSLLNNAIKGGVEDEVTLSAYITIALLEIPLTVTHPVVRNALFCLESAWKTAQEGDHGSHVYTKALLAYAFALAGNQDKRKEVLKSLNEEAVKKDNSVHWERPQKPKAPVGHFYEPQAPSAEVEMTSYVLLAYLTAQPAPTSEDLTSATNIVKWITKQQNAQGGFSSTQDTVVALHALSKYGAATFTRTGKAAQVTIQSSGTFSSKFQVDNNNRLLLQQVSLPELPGEYSMKVTGEGCVYLQTSLKYNILPEKEEFPFALGVQTLPQTCDEPKAHTSFQISLSVSYTGSRSASNMAIVDVKMVSGFIPLKPTVKMLERSNHVSRTEVSSNHVLIYLDKVSNQTLSLFFTVLQDVPVRDLKPAIVKVYDYYETDEFAIAEYNAPCSKDLGNADYKDDDDKGASHHHHHH

Source: patent US20230250154A1 (CYTONICS, published 2023)
